Assay results as given in patent publication US20250059284A1 (AGENX, published 2025).

T1: recombinant galectin-10 crystals (Charcot-Leyden crystals) (UniProt Q05315 2-142, limits assumed)
T1 sequence (looked up): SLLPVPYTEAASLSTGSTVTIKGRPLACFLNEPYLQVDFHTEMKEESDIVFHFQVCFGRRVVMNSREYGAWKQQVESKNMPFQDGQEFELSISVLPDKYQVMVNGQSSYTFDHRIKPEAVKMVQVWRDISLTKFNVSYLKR

T2: human Gal10-His (human, UniProt Q05315 2-142, limits assumed)
T2 construct: also called human galectin-10; not shown: His tag
T2 sequence: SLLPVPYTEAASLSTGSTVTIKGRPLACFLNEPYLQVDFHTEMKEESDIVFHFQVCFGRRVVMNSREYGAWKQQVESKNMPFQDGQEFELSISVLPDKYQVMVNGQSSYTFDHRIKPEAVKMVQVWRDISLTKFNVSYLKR

T3: galectin-10 (Gal10), species and tag not stated for the assay (UniProt Q05315 2-142, limits assumed)
T3 construct: human is likely, since the human-specific 1D11 is in the panel
T3 sequence (looked up): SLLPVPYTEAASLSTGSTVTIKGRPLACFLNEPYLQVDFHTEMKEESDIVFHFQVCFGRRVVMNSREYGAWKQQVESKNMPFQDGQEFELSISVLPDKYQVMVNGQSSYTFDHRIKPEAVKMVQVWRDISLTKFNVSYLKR

B1: g24F02_N53A human Fab (Fab, V domains shown)
VH: EVQLLESGGGLVQPGGSLRLSCAASGFTFSSYAMSWVRQAPGKGLEWVSAINAGGGSTSYADSVKGRFTISRDNSKNTLYLQMNSLRAEDTAVYYCAKGLRVGVLGFDYWGQGTLVTVSS
VL: SYELTQPLSVSVALGQTARITCDGNNIGSKSAQWYQQKPGQAPVLVIYADEYRPEGIPERFSGSNSGNTATLTISRAQAGDEADYYCQVWDGSAAVFGGGTQLTVL
notes: Human Fab backbone
B2: g23H09 human Fab (Fab, V domains shown)
VH: EVQLLESGGGLVQPGGSLRLSCAASGFTFRSYDMSWVRQAPGKGLEWVSAIAQFQHWTYYADSVKGRFTISRDNSKNTLYLQMNSLRAEDTAVYYCATTHGIGTLGFGSWGQGTLVTVSS
VL: SYELTQPLSVSVALGQTARITCDGNNIGSKSAQWYQQKPGQAPVLVIYADEYRPEGIPERFSGSNSGNTATLTISRAQAGDEADYYCQVWDGSAAVFGGGTQLTVL
notes: Germlined clone in human Fab backbone; also called clone 23H09
B3: g20H09 human Fab (Fab, V domains shown)
VH: EVQLLESGGGLVQPGGSLRLSCAASGFTFRSYDMSWVRQAPGKGLEWVSAIKWHRITYYADSVKGRFTISRDNSKNTLYLQMNSLRAEDTAVYYCATTHGIGTLGFGSWGQGTLVTVSS
VL: SYELTQPLSVSVALGQTARITCDGNNIGSKSAQWYQQKPGQAPVLVIYADEYRPEGIPERFSGSNSGNTATLTISRAQAGDEADYYCQVWDGSAAVFGGGTQLTVL
notes: Germlined clone in human Fab backbone; also called clone 20H09
B4: g24F02 human Fab (Fab, V domains shown)
VH: EVQLLESGGGLVQPGGSLRLSCAASGFTFSSYAMSWVRQAPGKGLEWVSAINNGGGSTSYADSVKGRFTISRDNSKNTLYLQMNSLRAEDTAVYYCAKGLRVGVLGFDYWGQGTLVTVSS
VL: SYELTQPLSVSVALGQTARITCDGNNIGSKSAQWYQQKPGQAPVLVIYADEYRPEGIPERFSGSNSGNTATLTISRAQAGDEADYYCQVWDGSAAVFGGGTQLTVL
notes: Germlined clone in human Fab backbone

Columns and labels:
[1] = biological target: T1, recombinant galectin-10 crystals …; assay: cell-based or functional assay
[2] = biological target: T2, human Gal10-His; assay: SPR Biacore 3000; human Gal10-His captured on anti-His CM5 chip
Protocol: The binding properties of the selected Fab clones to human Gal10 were analyzed via a capture method established on Biacore 3000. It was decided to apply two concentrations of the selected Fab clones on human Gal10-His immobilized on a CM5 chip coated with a monoclonal anti-His.

[3] = biological target: T3, galectin-10 (Gal10), species and tag …; assay: SPR (Biacore 3000), binding activity of the sample stored 4 weeks at +5 C and nebulized, relative to reference sample T0; criterion <20% loss
Protocol: The functional active concentration of the nebulized solutions was assessed by SPR on a Biacore 3000 instrument. All samples were evaluated with methods meeting the standard qualification criteria. Aliquots were tested at predefined test concentrations against titration curves from reference samples (TO) and in the presence of quality control (QC) samples.

[4] = biological target: T4, cynomolgus Gal10-His (WGS isoform) (cynomolgus); assay: SPR Biacore 3000; cynomolgus Gal10-His (WGS isoform) captured on anti-His CM5 chip; Fab at 30 nM
T4 construct: also called cyno Gal10; cynomolgus antigen
Protocol: (§1) The binding properties of the selected Fab clones to human and cynomolgus Gal10 was analyzed via a capture method established on Biacore 3000. For this purpose, two approaches were used. In the first one, two concentrations of the selected Fab clone were applied on cynomolgus (WGS isoform) Gal10-His capture on a CM5 chip coated with a monoclonal anti-His. In the second approach, a serial dilution was applied on human or cynomolgus (WGS isoform) Gal10 His on the same set up.

[5] = biological target: T2, human Gal10-His; assay: SPR Biacore 3000; human Gal10-His captured on anti-His CM5 chip; Fab at 30 nM
Protocol: as §1

Binder	EC50, Gal10 crystal dissolution, stressed material (T4W post-nebulization, after 2 hour incubation), assay 2 [1]	EC50, Gal10 crystal dissolution, unstressed material (T0, after 2 hour incubation), assay 2 [1]	relative activity in recombinant Gal10 crystal dissolution, T4W post-nebulization sample relative to unstressed material T0 (at 2 hour incubation) [1]	fold better off rate than g7B07 [2]	relative activity by SPR for T4W post-nebulization sample relative to reference sample T0 [3]	Amplitude R0 (RU) 30 nM [4]	Amplitude R0 (RU) 30 nM [5]	EC50, Gal10 crystal dissolution, stressed material (T4W post-nebulization, after 2 hour incubation), assay 1 [1]	EC50, Gal10 crystal dissolution, unstressed material (T0, after 2 hour incubation), assay 1 [1]	relative activity in recombinant Gal10 crystal dissolution, T4W post-nebulization sample relative to unstressed material T0 (at 2 hour incubation), assay 1 [1]	relative activity in recombinant Gal10 crystal dissolution, T4W post-nebulization sample relative to unstressed material T0 (at 2 hour incubation), assay 2 [1]
B1	159 µg/mL	191 µg/mL	120%	3.5 fold	111%	544 RU	647 RU				
B2	209 µg/mL	190 µg/mL		1.9 fold	119%	589 RU	722 RU	297 µg/mL	252 µg/mL	85%	91%
B3			66%		97%			395 µg/mL	260 µg/mL		
B4						566 RU	644 RU				
